# Measurements taken from publication PMC7464691, “Modulation of Amyloidogenic Peptide Aggregation by Photoactivatable CO-Releasing Ruthenium(II) Complexes” (Pharmaceuticals, 2020).
# Target: the molecule itself
# Experiment: ESI-MS; peptide 100 uM in 10 mM borate buffer pH 9, incubated with compound 2 (1:10) for 0 h (UV-irradiated) or 24 h (not irradiated), diluted in 15 mM ammonium acetate
protein,measurement,value
"Ac-VEAKFINYVKNCFR-NH2 (nucleophosmin 1 (NPM1), helix H2 of the C-terminal domain, residues 264-277; By ESI-MS the peptide is present as a monomer and as a disulfide-bridged dimer; also called NMP1_(264–277); NPM1_(264–277)(M); source: synthetic peptide (SPPS), treated with HFIP, purified by RP-HPLC) [nucleophosmin 1 (NPM1) 264-277, second helix (H2) of the C-terminal domain]",stoichiometry N,2
